Reference: patent US9090686B2, “Antibodies for the treatment of HIV” (Pierre Fabre Medicament, priority 2009, dated 2015)
Numbering of substitutions follows the chain as printed.

B1: 515H7: murine anti-CXCR4 monoclonal antibody; light chain variable domain SEQ ID No. 7, heavy chain variable domain SEQ ID No. 8 (antibody, listed as Mus musculus, V domains shown)
VH: EVNLVESGGGLVQPGGSLRLSCATSGFTFTDNYMSWVRQPPGKALEWLGFIRNKANGYTTDYSASVRGRFTISRDNSQSILYLQMNALRAEDSATYYCARDVGSNYFDYWGQGTTLTVSS
VL: DIVMSQSPSSLAVSAGEKVTMSCKSSQSLFNSRTRKNYLAWYQQKPGQSPKLLIYWASARDSGVPARFTGSGSETYFTLTISRVQAEDLAVYYCMQSFNLRTFGGGTKLEIK
B2: 301aE5: murine anti-CXCR4 monoclonal antibody; light chain variable domain SEQ ID No. 34, heavy chain variable domain SEQ ID No. 35 (antibody, listed as Mus musculus, V domains shown)
VH: QVQLKESGPGLVAPSQSLSITCTVSGFSLTDYGVYWVRQPPGKGLEWLGMIWGDGTTDYNSALKSRLSISKDNSKSQVFLKMNTLQTDDTARYYCARGRQFGFDYWGQGTTLTVSS
VL: B1 VL with S22R, Y55F, A59I, D61E, A66D, E74G, Y76D, R83S, M95K, F98Y

Experiments:
[1] = biological target: T1, native form of CXCR4 expressed at the cell surface of monocytes and T lymphocytes (Homo sapiens, UniProt P61073); test: FACS binding to peripheral blood mononuclear cells (whole blood); conditions: CD3 positive and CD14 positive cells, whole blood of healthy donor
T1 construct: the native form of CXCR4 expressed at the cell surface of monocytes and T lymphocytes; endogenous in cells; host or cells: whole blood (buffy coat) of a healthy donor; CD14+ monocytes and CD3+ T cells
T1 sequence (P61073 whole entry): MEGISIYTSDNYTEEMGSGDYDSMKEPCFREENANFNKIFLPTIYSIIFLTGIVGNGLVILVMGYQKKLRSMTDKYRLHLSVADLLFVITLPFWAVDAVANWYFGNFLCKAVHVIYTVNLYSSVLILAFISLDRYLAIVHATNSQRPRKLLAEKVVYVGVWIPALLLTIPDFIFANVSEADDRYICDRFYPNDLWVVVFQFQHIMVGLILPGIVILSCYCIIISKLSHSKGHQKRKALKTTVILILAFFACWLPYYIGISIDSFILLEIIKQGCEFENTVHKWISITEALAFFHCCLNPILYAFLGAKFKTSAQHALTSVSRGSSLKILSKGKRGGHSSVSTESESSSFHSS
Description: Blood was collected as buffy coat from healthy donor. 100 μl of whole blood was incubated with anti-human CXCR4 antibodies (clones 515H7 and 301aE5) at the indicated concentration for 20 minutes at 4° C. Blood was washed three times in PBS-BSA 1%-NaN3 0.01% and incubated with goat anti-human Alexa 488 IgG diluted 1:500 (Invitrogen) for 20 minutes at 4° C. Cells were then washed and incubated with CD14-PE (Caltag) or CD3-PE (Caltag) for 10 minutes at 4° C. and washed three times. Red blood cells were lysed with High-Yield lyse solution (Caltag) for 10 minutes at room temperature. Cells were analyzed immediately using Facscalibur (Becton-Dickinson). CXCR4 expression on monocytes was done on CD14 positive cells and CXCR4 expression on T cell was done on CD3 positives cells (FIG. 1). Results are expressed in Antigen Binding Capacity (ABC).

[2] = tested on: HIV-1 primary isolate KON (X4 virus); test: HIV-1 KON replication in PHA-activated human PBMC, single cycle neutralization, p24 FACS (Example 5); assay type: cell-based; conditions: HIV-1 KON replication in PBMC, molar value in brackets
Description: PBMC from normal donors seronegative for HIV-1 were isolated from buffy coats or cytapheresis by Ficoll-Hypaque gradient centrifugation. PBMC were activated in the presence of PHA in RPMI 1640 cell culture medium containing 25 mM HEPES, 5 ml penicillin (10000 U/ml)-streptomycin (10000 μg/ml) 2 mM L-glutamine, supplemented with 10% heat-inactivated FCS and were used as cellular targets in a single cycle neutralization assay. HIV-1 replication in primary human PBMC was performed by analyzing intracellular staining of viral p24 antigen by FACS analysis. Briefly, 25 μl per well of various dilutions of Mabs 515H7, 301aE5 and 12G5 (R&D Systems) or culture medium as control (RPMI 1640, 10% FCS, 0.1% IL-2), were incubated for 1 h at 37° C. with 25 μl per well of HIV-1 KON X4 primary isolate dilution, in duplicate. PHA-activated human PBMC (25 μl/well) at 20×10^6 cells/ml were added to the Mab/virus mixture in a 96-well plate (U-bottom, Costar 3599) and cultured for 24 to 36 hours at 37° C. in RPMI 1640 10% FCS and 0.1% IL-2. […] To detect HIV-infected PBMC, intracellular staining of viral p24 antigen was performed and analyzed by flow cytometry. […] The percentage of p24-positive cells in the different samples was determined by gating 20,000 events on a living cell population. The living cell subsets were analyzed for p24 expression relative to background staining of uninfected cells. […]

Molecule	staining of T lymphocytes and monocytes [1]	IC90 [2] [µM]
B1	stained both T lymphocytes (FIG. 2A) and monocytes (FIG. 2B)	0.066
B2	stained both T lymphocytes (FIG. 2A) and monocytes (FIG. 2B)	1
